Experimental data: US20260015399A1 (Boehringer Ingelheim, published 2026)
*1 amine or outer side, *2 acyl side, *3 side chain or, on linkers, in order; H or OH if unused. Side-chain parts run from the residue outwards. The star is where a group is joined. C18 diacid = O=C(O)CCCCCCCCCCCCCCCCC(=O)*; γGlu = O=C(O)[C@H](CCC(=O)[*:2])N[*:1]; Isovaleryl = CC(C)CC(=O)*; Ahx = NCCCCCC(=O)O

T1: human NPY2 receptor (human, UniProt P49146 1-381)
T1 construct: whole, on cells; also called hNPY2-R; hNPY2R
T1 sequence (looked up): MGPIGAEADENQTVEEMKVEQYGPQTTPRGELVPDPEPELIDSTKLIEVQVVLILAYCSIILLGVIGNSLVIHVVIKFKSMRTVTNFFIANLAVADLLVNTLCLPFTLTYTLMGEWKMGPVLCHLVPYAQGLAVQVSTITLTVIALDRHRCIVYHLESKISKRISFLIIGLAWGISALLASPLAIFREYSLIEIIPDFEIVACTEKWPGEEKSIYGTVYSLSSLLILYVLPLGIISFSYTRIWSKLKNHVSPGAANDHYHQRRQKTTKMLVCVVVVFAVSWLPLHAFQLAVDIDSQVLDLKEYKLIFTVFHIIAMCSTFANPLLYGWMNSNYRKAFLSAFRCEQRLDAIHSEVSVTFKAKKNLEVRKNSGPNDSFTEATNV

B1: Compound 30 (peptide)
peptide: Isovaleryl-APEK([Ahx-γGlu-C18 diacid])PPADATPEELQRYYVSLRHYYNWLTRQRY-NH2
SMILES: CC(C)CC(=O)N[C@@H](C)C(=O)N1CCC[C@H]1C(=O)N[C@@H](CCC(=O)O)C(=O)N[C@@H](CCCCNC(=O)CCCCCNC(=O)CC[C@H](NC(=O)CCCCCCCCCCCCCCCCC(=O)O)C(=O)O)C(=O)N1CCC[C@H]1C(=O)N1CCC[C@H]1C(=O)N[C@@H](C)C(=O)N[C@@H](CC(=O)O)C(=O)N[C@@H](C)C(=O)N[C@H](C(=O)N1CCC[C@H]1C(=O)N[C@@H](CCC(=O)O)C(=O)N[C@@H](CCC(=O)O)C(=O)N[C@@H](CC(C)C)C(=O)N[C@@H](CCC(N)=O)C(=O)N[C@@H](CCCNC(=N)N)C(=O)N[C@@H](Cc1ccc(O)cc1)C(=O)N[C@@H](Cc1ccc(O)cc1)C(=O)N[C@H](C(=O)N[C@@H](CO)C(=O)N[C@@H](CC(C)C)C(=O)N[C@@H](CCCNC(=N)N)C(=O)N[C@@H](Cc1c[nH]cn1)C(=O)N[C@@H](Cc1ccc(O)cc1)C(=O)N[C@@H](Cc1ccc(O)cc1)C(=O)N[C@@H](CC(N)=O)C(=O)N[C@@H](Cc1c[nH]c2ccccc12)C(=O)N[C@@H](CC(C)C)C(=O)N[C@H](C(=O)N[C@@H](CCCNC(=N)N)C(=O)N[C@@H](CCC(N)=O)C(=O)N[C@@H](CCCNC(=N)N)C(=O)N[C@@H](Cc1ccc(O)cc1)C(N)=O)[C@@H](C)O)C(C)C)[C@@H](C)O
B2: Compound 31 (peptide)
peptide: Isovaleryl-APEK([Ahx-γGlu-C18 diacid])PEEDATPEELQPYYVSLRHYYNWLTRQRY-NH2
SMILES: CC(C)CC(=O)N[C@@H](C)C(=O)N1CCC[C@H]1C(=O)N[C@@H](CCC(=O)O)C(=O)N[C@@H](CCCCNC(=O)CCCCCNC(=O)CC[C@H](NC(=O)CCCCCCCCCCCCCCCCC(=O)O)C(=O)O)C(=O)N1CCC[C@H]1C(=O)N[C@@H](CCC(=O)O)C(=O)N[C@@H](CCC(=O)O)C(=O)N[C@@H](CC(=O)O)C(=O)N[C@@H](C)C(=O)N[C@H](C(=O)N1CCC[C@H]1C(=O)N[C@@H](CCC(=O)O)C(=O)N[C@@H](CCC(=O)O)C(=O)N[C@@H](CC(C)C)C(=O)N[C@@H](CCC(N)=O)C(=O)N1CCC[C@H]1C(=O)N[C@@H](Cc1ccc(O)cc1)C(=O)N[C@@H](Cc1ccc(O)cc1)C(=O)N[C@H](C(=O)N[C@@H](CO)C(=O)N[C@@H](CC(C)C)C(=O)N[C@@H](CCCNC(=N)N)C(=O)N[C@@H](Cc1c[nH]cn1)C(=O)N[C@@H](Cc1ccc(O)cc1)C(=O)N[C@@H](Cc1ccc(O)cc1)C(=O)N[C@@H](CC(N)=O)C(=O)N[C@@H](Cc1c[nH]c2ccccc12)C(=O)N[C@@H](CC(C)C)C(=O)N[C@H](C(=O)N[C@@H](CCCNC(=N)N)C(=O)N[C@@H](CCC(N)=O)C(=O)N[C@@H](CCCNC(=N)N)C(=O)N[C@@H](Cc1ccc(O)cc1)C(N)=O)[C@@H](C)O)C(C)C)[C@@H](C)O
B3: Compound 32 (peptide)
peptide: Isovaleryl-APAK([Ahx-γGlu-C18 diacid])PEEDASPEELQRYYVSLRHQYNWLTRQRY-NH2
SMILES: CC(C)CC(=O)N[C@@H](C)C(=O)N1CCC[C@H]1C(=O)N[C@@H](C)C(=O)N[C@@H](CCCCNC(=O)CCCCCNC(=O)CC[C@H](NC(=O)CCCCCCCCCCCCCCCCC(=O)O)C(=O)O)C(=O)N1CCC[C@H]1C(=O)N[C@@H](CCC(=O)O)C(=O)N[C@@H](CCC(=O)O)C(=O)N[C@@H](CC(=O)O)C(=O)N[C@@H](C)C(=O)N[C@@H](CO)C(=O)N1CCC[C@H]1C(=O)N[C@@H](CCC(=O)O)C(=O)N[C@@H](CCC(=O)O)C(=O)N[C@@H](CC(C)C)C(=O)N[C@@H](CCC(N)=O)C(=O)N[C@@H](CCCNC(=N)N)C(=O)N[C@@H](Cc1ccc(O)cc1)C(=O)N[C@@H](Cc1ccc(O)cc1)C(=O)N[C@H](C(=O)N[C@@H](CO)C(=O)N[C@@H](CC(C)C)C(=O)N[C@@H](CCCNC(=N)N)C(=O)N[C@@H](Cc1c[nH]cn1)C(=O)N[C@@H](CCC(N)=O)C(=O)N[C@@H](Cc1ccc(O)cc1)C(=O)N[C@@H](CC(N)=O)C(=O)N[C@@H](Cc1c[nH]c2ccccc12)C(=O)N[C@@H](CC(C)C)C(=O)N[C@H](C(=O)N[C@@H](CCCNC(=N)N)C(=O)N[C@@H](CCC(N)=O)C(=O)N[C@@H](CCCNC(=N)N)C(=O)N[C@@H](Cc1ccc(O)cc1)C(N)=O)[C@@H](C)O)C(C)C
B4: Compound 33 (peptide)
peptide: Isovaleryl-APAK([Ahx-γGlu-C18 diacid])PEEDAEPEELQRYYISLRHYYNWLTRQRY-NH2
SMILES: CC[C@H](C)[C@H](NC(=O)[C@H](Cc1ccc(O)cc1)NC(=O)[C@H](Cc1ccc(O)cc1)NC(=O)[C@H](CCCNC(=N)N)NC(=O)[C@H](CCC(N)=O)NC(=O)[C@H](CC(C)C)NC(=O)[C@H](CCC(=O)O)NC(=O)[C@H](CCC(=O)O)NC(=O)[C@@H]1CCCN1C(=O)[C@H](CCC(=O)O)NC(=O)[C@H](C)NC(=O)[C@H](CC(=O)O)NC(=O)[C@H](CCC(=O)O)NC(=O)[C@H](CCC(=O)O)NC(=O)[C@@H]1CCCN1C(=O)[C@H](CCCCNC(=O)CCCCCNC(=O)CC[C@H](NC(=O)CCCCCCCCCCCCCCCCC(=O)O)C(=O)O)NC(=O)[C@H](C)NC(=O)[C@@H]1CCCN1C(=O)[C@H](C)NC(=O)CC(C)C)C(=O)N[C@@H](CO)C(=O)N[C@@H](CC(C)C)C(=O)N[C@@H](CCCNC(=N)N)C(=O)N[C@@H](Cc1c[nH]cn1)C(=O)N[C@@H](Cc1ccc(O)cc1)C(=O)N[C@@H](Cc1ccc(O)cc1)C(=O)N[C@@H](CC(N)=O)C(=O)N[C@@H](Cc1c[nH]c2ccccc12)C(=O)N[C@@H](CC(C)C)C(=O)N[C@H](C(=O)N[C@@H](CCCNC(=N)N)C(=O)N[C@@H](CCC(N)=O)C(=O)N[C@@H](CCCNC(=N)N)C(=O)N[C@@H](Cc1ccc(O)cc1)C(N)=O)[C@@H](C)O
B5: Compound 34 (peptide)
peptide: Isovaleryl-APEK([Ahx-γGlu-C18 diacid])PEEDASAEELQQYYVSLRHYYNWLTRQRY-NH2
SMILES: CC(C)CC(=O)N[C@@H](C)C(=O)N1CCC[C@H]1C(=O)N[C@@H](CCC(=O)O)C(=O)N[C@@H](CCCCNC(=O)CCCCCNC(=O)CC[C@H](NC(=O)CCCCCCCCCCCCCCCCC(=O)O)C(=O)O)C(=O)N1CCC[C@H]1C(=O)N[C@@H](CCC(=O)O)C(=O)N[C@@H](CCC(=O)O)C(=O)N[C@@H](CC(=O)O)C(=O)N[C@@H](C)C(=O)N[C@@H](CO)C(=O)N[C@@H](C)C(=O)N[C@@H](CCC(=O)O)C(=O)N[C@@H](CCC(=O)O)C(=O)N[C@@H](CC(C)C)C(=O)N[C@@H](CCC(N)=O)C(=O)N[C@@H](CCC(N)=O)C(=O)N[C@@H](Cc1ccc(O)cc1)C(=O)N[C@@H](Cc1ccc(O)cc1)C(=O)N[C@H](C(=O)N[C@@H](CO)C(=O)N[C@@H](CC(C)C)C(=O)N[C@@H](CCCNC(=N)N)C(=O)N[C@@H](Cc1c[nH]cn1)C(=O)N[C@@H](Cc1ccc(O)cc1)C(=O)N[C@@H](Cc1ccc(O)cc1)C(=O)N[C@@H](CC(N)=O)C(=O)N[C@@H](Cc1c[nH]c2ccccc12)C(=O)N[C@@H](CC(C)C)C(=O)N[C@H](C(=O)N[C@@H](CCCNC(=N)N)C(=O)N[C@@H](CCC(N)=O)C(=O)N[C@@H](CCCNC(=N)N)C(=O)N[C@@H](Cc1ccc(O)cc1)C(N)=O)[C@@H](C)O)C(C)C
B6: Compound 35 (peptide)
peptide: Isovaleryl-APAK([Ahx-γGlu-C18 diacid])PEEAATPEELQRYYVSLRHYYNWLTRQRY-NH2
SMILES: CC(C)CC(=O)N[C@@H](C)C(=O)N1CCC[C@H]1C(=O)N[C@@H](C)C(=O)N[C@@H](CCCCNC(=O)CCCCCNC(=O)CC[C@H](NC(=O)CCCCCCCCCCCCCCCCC(=O)O)C(=O)O)C(=O)N1CCC[C@H]1C(=O)N[C@@H](CCC(=O)O)C(=O)N[C@@H](CCC(=O)O)C(=O)N[C@@H](C)C(=O)N[C@@H](C)C(=O)N[C@H](C(=O)N1CCC[C@H]1C(=O)N[C@@H](CCC(=O)O)C(=O)N[C@@H](CCC(=O)O)C(=O)N[C@@H](CC(C)C)C(=O)N[C@@H](CCC(N)=O)C(=O)N[C@@H](CCCNC(=N)N)C(=O)N[C@@H](Cc1ccc(O)cc1)C(=O)N[C@@H](Cc1ccc(O)cc1)C(=O)N[C@H](C(=O)N[C@@H](CO)C(=O)N[C@@H](CC(C)C)C(=O)N[C@@H](CCCNC(=N)N)C(=O)N[C@@H](Cc1c[nH]cn1)C(=O)N[C@@H](Cc1ccc(O)cc1)C(=O)N[C@@H](Cc1ccc(O)cc1)C(=O)N[C@@H](CC(N)=O)C(=O)N[C@@H](Cc1c[nH]c2ccccc12)C(=O)N[C@@H](CC(C)C)C(=O)N[C@H](C(=O)N[C@@H](CCCNC(=N)N)C(=O)N[C@@H](CCC(N)=O)C(=O)N[C@@H](CCCNC(=N)N)C(=O)N[C@@H](Cc1ccc(O)cc1)C(N)=O)[C@@H](C)O)C(C)C)[C@@H](C)O

Biological target: T1, human NPY2 receptor
Assay: RLB: displacement of 125I-PYY(1-36) from hNPY2R membranes

Row | Binder | Ki [nM]
1 | B1 | 0.3
2 | B2 | 34.7
3 | B3 | 13.6
4 | B4 | 2.53
5 | B5 | 3.53
6 | B6 | 1.4
